Data taken from patent US20050064507A1, “Determining kinase specificity” (priority 2003, published 2005).

Tests used:
PKC-alpha = molecular target: T1, PKC-alpha (Homo sapiens, UniProt P17252); assay: In vitro kinase assay: peptide phosphorylation by PKC-alpha; type: biochemical
T1 construct: purchased Calbiochem
Procedure: (§1) Catalytically active preparations of the kinases of interest were either purchased or prepared. Purchased and tested active kinase preparations including the following: PKC-alpha, PKC-delta, PKC-epsilon, PKC-zeta, PKC-mu, PKA, PKG from Calbiochem, ROK alpha/ROCK-II, active from Upstate Biotechnology, and AKT1 from Panvera.
(§2) The conditions of the kinase assay and the amount of active kinase used varied with the kinase and with the accuracy needed. For a typical experiment, 5-20 ng of kinase was used per well and each peptide pool was assayed in duplicate wells. Note that the absolute amount of kinase used was not usually a critical parameter, because the desired information related to specificity of the kinase not its absolute activity, and robustness of the assay depends on comparisons of the same amount of kinase on different peptides. The combination of kinase concentration and assay duration was modified to assure that the stoichiometry of peptide phosphorylation never exceeded 5%. The choice of kinase buffer depended on the kinase being analyzed. For studies of PKC, 100 mM HEPES, 0.05% Triton-X100, 1 mM CaCl2, 20 mM MgCl2, 0.2 mg/ml phosphatidyl serine (Avanti Polar Lipids), PMA 100 ng/ml was typically used. The lipid stock was prepared by transferring 3 mg phosphatidyl serine into iced mixture of 450 μl water plus 50 μl of 10% Triton-X100, sonicating 10 times on ice for 1 sec each.
(§3) The kinase reaction mixture was assembled by sequential addition to a tube held on ice of: 5 μl peptide (100 μM for final concentration of 10 μM), 15 μl of kinase (typically 5 ng/well, in appropriate kinase buffer), 30 μl of ATP (1 uCi/well of ^32P-gamma ATP in a stock of 167 μM cold ATP in the kinase buffer; for final concentration for 100 μM ATP). The mixture was rapidly warmed to desired reaction temperature (30° C. for PKC) and incubated for the desired duration (usually 10 minutes). The kinase assay was terminated by transfer to 4° C. water batch, and rapid addition of an equal volume (50 μl) of stop solution [0.1M ATP+0.1M EDTA in water, pH 8].
(§4) The peptides were then captured from the reaction mixture by transfer to a Reacti-Bind Streptavidin High Binding Capacity Coated Plates (HBC) (Pierce Biotechnology) as follows. The HBC plates were pre-rinsed three times with PBS/Tween PBS/Tween20 0.05% (PBS/Tween). Part of all of the reaction mixture was then transferred wells of a HBC plate pre-filled with 90 μl of phosphate-buffered saline (PBS); typically each aliquots of each phosphorylation reaction were transferred to duplicate HBC plates to assure accuracy by additional replication
(§5) For kinase assays done at the standard peptide concentration of 10 μM, the peptide concentration in the reaction mixture becomes 5 μM after addition of the stop solution; consequently 10 μl of the reaction (50 pMoles of peptide) was transferred to the HBC plate. More generally, the amount of reaction mixture transferred was estimated to be about 50 pMoles of peptide. […] The HBC plates were incubated for 0.5 to 1.5 hr at room temperature for complete binding of biotinylated peptides to plate-bound streptavidin. The HBC plates were then washed extensively with PBS/Tween. Five washes were done routinely and additional wash steps were added if the wash solution removed from the plate had measurable radioactivity as detected using a Geiger counter. This step is essential to obtaining a good the signal to noise ratio because the fraction of radioactivity incorporated in the peptides was a tiny fraction of the total in the reaction mixture. The wells were air-dried. A volume of 40-50 μl of microScint-20 (Packard Instruments) was added to each well. The plates were covered with stick-on film sheet. Radioactive emissions were measured in a TopCount NXT Microplate Scintillation and Luminescence Counter (Packard Instruments). Typically samples were counted for 5 minutes (or more) to improve the signal to noise ratio when counts were low. […]

PKC-epsilon = molecular target: T2, PKC-epsilon (Homo sapiens, UniProt Q02156); assay: In vitro kinase assay: peptide phosphorylation by PKC-epsilon; type: biochemical; settings: peptide concentration 1 uM
T2 construct: purchased Calbiochem
T2 sequence (Q02156 1-737): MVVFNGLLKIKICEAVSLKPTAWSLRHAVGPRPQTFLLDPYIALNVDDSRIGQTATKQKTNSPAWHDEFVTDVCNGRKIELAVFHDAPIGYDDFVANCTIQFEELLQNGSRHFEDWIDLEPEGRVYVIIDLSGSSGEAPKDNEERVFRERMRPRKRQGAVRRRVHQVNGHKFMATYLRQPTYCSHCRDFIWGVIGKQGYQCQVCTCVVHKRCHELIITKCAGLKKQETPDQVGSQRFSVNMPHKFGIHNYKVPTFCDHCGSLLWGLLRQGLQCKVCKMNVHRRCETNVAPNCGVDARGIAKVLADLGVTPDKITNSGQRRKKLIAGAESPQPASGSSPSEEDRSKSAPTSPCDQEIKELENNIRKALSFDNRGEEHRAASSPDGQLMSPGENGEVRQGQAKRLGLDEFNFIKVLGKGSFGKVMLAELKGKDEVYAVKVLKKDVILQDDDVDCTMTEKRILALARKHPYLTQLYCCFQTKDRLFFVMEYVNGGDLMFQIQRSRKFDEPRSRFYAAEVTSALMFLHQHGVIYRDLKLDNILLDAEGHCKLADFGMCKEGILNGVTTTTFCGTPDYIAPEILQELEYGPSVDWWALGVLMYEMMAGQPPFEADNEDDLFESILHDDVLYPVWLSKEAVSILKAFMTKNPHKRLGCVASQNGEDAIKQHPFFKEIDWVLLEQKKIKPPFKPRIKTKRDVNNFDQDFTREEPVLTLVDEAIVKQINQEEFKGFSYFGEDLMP
Procedure: as §1, §2, §3, §4, §5

Substance	phosphorylation by PKC alpha (PKC-alpha; peptide concentration 1 uM)	phosphorylation by PKC alpha (PKC-alpha; peptide concentration 10 uM)	phosphorylation by PKC epsilon (PKC-epsilon)
129 (VQRHRSMRKTFARYLSFRRD) [compound 129]	58	37	65
130 (EYLERRASRRRAV) [compound 130]	38	38	46
131 (WKGKRRSKARKKRK) [compound 131]	49	22	43
132 (GFLNEPLSSKSQRRKSLKLK) [compound 132]	24	30	47
133 (LEKRGMLGKRPRRKSSRRKK) [compound 133]	17	16	31
134 (RSRSRSRSKSKDKRKSRKRS) [compound 134]	54	39	32
135 (KKKFRTPSFLKKSKK) [compound 135]	56	19	27
136 (RARRDSLKKIEIW) [compound 136]	26	28	33
137 (PSKSPSKKKKKFRTPSFLKK) [compound 137]	34	38	32
138 (EYLERRASRRRAV) [compound 138]	17	20	27
139 (RPTPGDGEKRSRIKKSKKRK) [compound 139]	39	44	24
140 (TELEGGFSRQRKRKLSFRRR) [compound 140]	12	15	27
141 (VTDSQKRREILSRRPSYRKI) [compound 141]	24	25	31
142 (ERHVAQKKSRLRRRASQLKI) [compound 142]	16	21	28
143 (VRYTPYTISPYNRKGSFRKQ) [compound 143]	38	19	21
144 (LSSMFGTLPRKSRKGSVRKQ) [compound 144]	31	20	24
145 (ISDFGLAKKLAVGRHSFSRR) [compound 145]	21	30	26

Substance	phosphorylation by PKC alpha (PKC-alpha; peptide concentration 1 uM)	phosphorylation by PKC alpha (PKC-alpha; peptide concentration 10 uM)	phosphorylation by PKC epsilon (PKC-epsilon)
146 (QAQRQIKRGAPPRRSSIRNA) [compound 146]	20	24	28
147 (RDIRQSPKRGFLRSASLGRR) [compound 147]	13	16	26
154 (KKFFTQGWAGWRKKTSFRKP) [compound 154]	16	12	29
155 (RWDKRRWRKIPKRPGSVHRT) [compound 155]	10	12	26
156 (SAQITIPKDGQKRKKSLRKK) [compound 156]	9	11	18
157 (PSPSNETPKKKKKRFSFKKS) [compound 157]	10	11	12
158 (VQMTWSYPDEKNKRASVRRR) [compound 158]	16	11	11
159 (LYARLARAYRRSQRASFKRA) [compound 159]	21	19	25
160 (PFEVVWYKDKRQLRSSKKYK) [compound 160]	9	7	13
161 (KYKAFIRIPIPTRRHTFRRQ) [compound 161]	22	8	21
162 (KKKFSFKKPFKLSGLSFKRN) [compound 162]	17	19	19
163 (PPRTPGWHQLQPRRVSFRGE) [compound 163]	30	10	14
164 (TEGKMARVAWKGKRRSKARK) [compound 164]	6	6	12
165 (TEEKSKKRKKKHRKNSRKHK) [compound 165]	15	10	12
166 (MAQIERGEARIQRRISIKKA) [compound 166]	22	7	10
167 (GLPAPGEDKSIYRRGSRRWR) [compound 167]	27	7	6
